Test: immunofluorescence colocalisation with ER marker PDI (PCC)
Conditions: glycan lost; control: wild-type hACE2, DMSO

## human ACE2 (hACE2): N90Q/N322Q/N546Q/N53Q/N103Q
  localisation_or_trafficking: changes
